In paper PMC4699637, “Papillomavirus-Associated Tumor Formation Critically Depends on c-Fos Expression Induced by Viral Protein E2 and Bromodomain Protein Brd4”:

B1: dAP CRPV URR WT (dsDNA)
DNA 1: GCATGCGATGACACATTACAC
DNA 2: GTGTAATGTGTCATCGCATGC
B2: dAP CRPV URR mut (mdAP) (dsDNA)
DNA 1: GCATGCGACATATGTTACAC
DNA 2: GTGTAACATATGTCGCATGC

Experiments:
[1] = molecular target: T1, c-Jun (UniProt P05412 1-331); assay: EMSA; homodimer; details: protein: recombinant; chain copies: 2; label: 32P; blunt
[2] = molecular target: T1, c-Jun; assay: competition; homodimer; 100-fold excess unlabeled vs N1; details: protein: recombinant; chain copies: 2; blunt

T1 sequence (P05412 whole entry): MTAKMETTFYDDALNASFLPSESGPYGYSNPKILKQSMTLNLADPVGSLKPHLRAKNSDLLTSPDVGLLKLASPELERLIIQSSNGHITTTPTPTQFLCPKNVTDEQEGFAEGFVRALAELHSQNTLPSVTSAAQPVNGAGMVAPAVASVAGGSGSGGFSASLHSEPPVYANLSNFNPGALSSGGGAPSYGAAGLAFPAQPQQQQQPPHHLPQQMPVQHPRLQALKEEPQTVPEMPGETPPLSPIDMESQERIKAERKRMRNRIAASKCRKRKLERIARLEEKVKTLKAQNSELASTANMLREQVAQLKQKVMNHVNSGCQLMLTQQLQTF

Binder	binding result [1]	binding result [2]
B1	binds	–
B2	–	no binding
